Experimental findings from the Immune Epitope Database (IEDB) are described below.

Assay [1] deals with HLA-C*08:02. The assay is described as follows: IEDB peptide-MHC binding, purified MHC/direct/fluorescence; filed as Kd, often an IC50 or EC50 that approximates it; ≥ and ≤ were set here for values at or beyond the usual limits of such assays.
Assay [2] deals with HLA-B*48:01. The assay is described as above. Particulars: source organism: Burkholderia mallei.
Assay [3] concerns the target HLA-A*80:01. The description is as above. Particulars: source organism: Francisella tularensis subsp. holarctica LVS.
The target in assay [4] is HLA-A*01:01. The description is as above. As to conditions: source organism: Francisella tularensis subsp. holarctica LVS.
The target in assay [5] is HLA-B*15:01. Briefly: IEDB peptide-MHC binding, purified MHC/competitive/fluorescence; ≥ and ≤ were set here for values at or beyond the usual limits of such assays.
In assay [6] the target is HLA-A*01:01. The assay is described as above.
The target of assay [7] is HLA-A*02:03. Briefly: IEDB peptide-MHC binding, purified MHC/direct/fluorescence; filed as Kd, often an IC50 or EC50 that approximates it; ≥ and ≤ were set here for values at or beyond the usual limits of such assays. As to conditions: source organism: Zaire ebolavirus.
For assay [8], the target named is HLA-A*02:12. Described as above. Particulars: source organism: Zaire ebolavirus.
The target of assay [9] is HLA-A*02:19. The description is as above. As to conditions: source organism: Zaire ebolavirus.
The target of assay [10] is HLA-A*02:16. Described as above. As to conditions: source organism: Zaire ebolavirus.
The target in assay [11] is HLA-A*23:01. Described as above. As to conditions: source organism: Zaire ebolavirus.
Assay [12] concerns the target HLA-A*24:03. The assay is described as above. Particulars: source organism: Zaire ebolavirus.
Assay [13] addresses HLA-B*58:01. The description is as above. Particulars: source organism: Zaire ebolavirus.
Assay [14] deals with HLA-A*02:01. Briefly: IEDB peptide-MHC binding, purified MHC/competitive/fluorescence; filed as Kd, often an IC50 or EC50 that approximates it; ≥ and ≤ were set here for values at or beyond the usual limits of such assays. As to conditions: source organism: Zaire ebolavirus.
Assay [15] concerns the target HLA-A*69:01. The description is as above. As to conditions: source organism: Zaire ebolavirus.
The target of assay [16] is HLA-B*46:01. The assay is described as above. Particulars: source organism: Zaire ebolavirus.
The target in assay [17] is HLA-B*35:01. The assay is described as above. Particulars: source organism: Zaire ebolavirus.
Assay [18] concerns the target HLA-A*26:01. The assay is described as above. Particulars: source organism: Zaire ebolavirus.
Assay [19] has as its target HLA-B*57:01. The description is as above. As to conditions: source organism: Zaire ebolavirus.
For assay [20], the target named is HLA-B*27:03. The assay is described as above. Particulars: source organism: Zaire ebolavirus.
Assay [21] deals with HLA-B*39:01. The assay is described as above. As to conditions: source organism: Zaire ebolavirus.
Assay [22] addresses HLA-A*24:02. Briefly: IEDB peptide-MHC binding, purified MHC/competitive/fluorescence; ≥ and ≤ were set here for values at or beyond the usual limits of such assays. As to conditions: source organism: Zaire ebolavirus.
Assay [23] concerns the target HLA-A*02:01. The assay is described as above. Particulars: source organism: Zaire ebolavirus.
For assay [24], the target named is HLA-A*03:01. The description is as above. Particulars: source organism: Zaire ebolavirus.
Assay [25] concerns the target HLA-B*07:02. The description is as above. As to conditions: source organism: Zaire ebolavirus.
Assay [26] deals with HLA-A*11:01. The description is as above. Particulars: source organism: Zaire ebolavirus.
Assay [27] deals with HLA-B*15:01. Briefly: IEDB peptide-MHC binding, purified MHC/direct/fluorescence; filed as Kd, often an IC50 or EC50 that approximates it; ≥ and ≤ were set here for values at or beyond the usual limits of such assays. Particulars: source organism: Vibrio vulnificus CMCP6.
The target of assay [28] is HLA-B*07:02. Described as above. Particulars: source organism: Vibrio vulnificus.
Assay [29] concerns the target HLA-C*12:03. The description is as above. Particulars: source organism: Vibrio vulnificus YJ016.
Assay [30] deals with HLA-C*14:02. The description is as above. As to conditions: source organism: Vibrio vulnificus YJ016.
The target in assay [31] is HLA-B*51:01. The assay is described as above. Particulars: source organism: Vibrio vulnificus.
Assay [32] has as its target HLA-C*15:02. The description is as above. Particulars: source organism: Vibrio vulnificus YJ016.
Assay [33] has as its target HLA-C*06:02. Briefly: IEDB peptide-MHC binding, purified MHC/competitive/fluorescence; filed as Kd, often an IC50 or EC50 that approximates it; ≥ and ≤ were set here for values at or beyond the usual limits of such assays. As to conditions: source organism: Vibrio vulnificus YJ016.
Assay [34] concerns the target HLA-B*83:01. Described as above. As to conditions: source organism: Vibrio vulnificus YJ016.
In assay [35] the target is HLA-B*15:42. Described as above. As to conditions: source organism: Vibrio vulnificus YJ016.
The target in assay [36] is HLA-B*45:06. The description is as above. Particulars: source organism: Vibrio vulnificus YJ016.
Where [37] appears, read: source organism: Sudan ebolavirus.
Where [38] appears, read: source organism: Zaire ebolavirus.

pIC50, pKd: −log10 of the molar value.

Usually pKd stands for the negative decadic logarithm of the Kd, by convention in mol/L. What is called pIC50 is the negative decadic logarithm of the IC50, by convention in mol/L. Low readings indicate a large IC50, high ones a small IC50.

With FQPQSGNAM, the pKd is 6.24 in [1] (source organism: Burkholderia mallei NCTC 10229) and 5.60 in [2].

On to LSDNLSLVY, for which the pKd in assay [3] was 6.77; in assay [4] it was at least 9.00; in [1] (source organism: Francisella tularensis subsp. tularensis FSC198), 6.26.

With TSSYYATSY, the pIC50 was 4.84 in [5] (setting [37]) and 5.70 in assay [6] (setting [37]).

In the case of TVAPPAPVY, the pKd in assay [7], in assay [8], in assay [9], in [10], in assay [11] and in assay [12] was at most 4.70 in each case. Besides, the pKd in assay [13] was 5.96; in assay [14], at most 4.70; in assay [15] it was at most 4.70; in assay [16], at most 4.70; in [17], 9.70; in assay [18], at most 4.70. Moreover, the pKd in assay [19], in assay [20] and in assay [21] was at most 4.70 each time. For the same sequence, the pIC50 in assay [22] was 5.29; in assay [23] it was at most 3.92; in [5] (setting [38]), 5.09; in assay [24], 5.20; in assay [25], at most 3.86; in [6] (setting [38]), 4.74. Further, the pIC50 in [26] is 6.56.

As to YLRKHIRAL, the pKd was 7.62 in [27]; 8.52 in assay [28]; 6.71 in assay [29]; 7.00 in assay [30]; at most 4.70 in assay [31]; at most 4.70 in assay [32]. The pKd in [33] was 6.32; in assay [34], at most 5.30; in [35], at most 5.30; in [36] it was at most 5.30.
